Tests used:
[1] = test system: HeLa Kyoto; assay: solubility in G1/S (NP-40 vs SDS abundance) (log2 ratio); higher = more soluble; settings: cell cycle stage: G1/S
[2] = test system: HeLa Kyoto; assay: thermal stability score vs G1/S (z-score of summed log2 fold changes over temperatures); higher = more thermally stable than in G1/S
[3] = test system: HeLa Kyoto; assay: melting temperature (median over replicates), in situ; higher = more thermally stable
[4] = test system: HeLa Kyoto; assay: solubility change mitosis vs G1/S (difference of NP-40 vs SDS log2 ratios) (log2 ratio difference); higher = more soluble in mitosis
[5] = cell cycle stage: early G1 (4.5 h after nocodazole release)
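Throughout, for melting temperature (median over replicates), in situ: HeLa Kyoto cells synchronized by double thymidine or nocodazole block, proteins quantified by TMT10plex mass spectrometry, three independent biological replicates.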
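Throughout, for solubility change mitosis vs G1/S (difference of NP-40 vs SDS log2 ratios): synchronized HeLa Kyoto cells (double thymidine block for G1/S, nocodazole release for mitosis), protein amounts in NP-40 versus SDS lysates quantified by mass spectrometry, three biological replicates.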
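Throughout, for solubility in G1/S (NP-40 vs SDS abundance): HeLa Kyoto cells arrested at G1/S by double thymidine block, proteins quantified by TMT10plex mass spectrometry in mild NP-40 versus SDS extracts, three biological replicates.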
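Throughout, for thermal stability score vs G1/S (z-score of summed log2 fold changes over temperatures): synchronized HeLa Kyoto cells, proteins quantified by TMT10plex mass spectrometry, three biological replicates, mitosis taken 0.5 h after nocodazole release, G1/S directly after double thymidine block.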

| Substance | solubility in G1/S (log2) [1] | thermal stability score [2, 5] | thermal stability score ([2]; cell cycle stage: mitosis) | melting temperature ([3]; cell cycle stage: G1/S) [°C] | melting temperature ([3]; cell cycle stage: mitosis) [°C] | solubility change mitosis (log2) [4] |
| --- | --- | --- | --- | --- | --- | --- |
| MRVESGSAQERGILLESLSTLLEKTTASHEGRAPGNRELTDLLPPEVCSLLNPAAIYANNEISLRDVEVYGFDYDYTLAQYADALHPEIFSTARDILIEHYKYPEGIRKYDYNPSFAIRGLHYDIQKSLLMKIDAFHYVQLGTAYRGLQPVPDEEVIELYGGTQHIPLYQMSGFYGKGPSIKQFMDIFSLPEMALLSCVVDYFLGHSLEFDQAHLYKDVTDAIRDVHVKGLMYQWIEQDMEKYILRGDETFAVLSRLVAHGKQLFLITNSPFSFVDKGMRHMVGPDWRQLFDVVIVQADKPSFFTDRRKPFRKLDEKGSLQWDRITRLEKGKIYRQGNLFDFLRLTEWRGPRVLYFGDHLYSDLADLMLRHGWRTGAIIPELEREIRIINTEQYMHSLTWQQALTGLLERMQTYQDAESRQVLAAWMKERQELRCITKALFNAQFGSIFRTFHNPTYFSRRLVRFSDLYMASLSCLLNYRVDFTFYPRRTPLQHEAPLWMDQLCTGCMKTPFLGDMAHIR [NT5DC2] | -0.284 | -0.133 | 0.934 | 53.1 | 52.6 | -0.0879 |
| MSSAPRSPTPRPRRMKKDESFLGKLGGTLARKRRAREVSDLQEEGKNAINSPMSPALVDVHPEDTQLEENEERTMIDPTSKEDPKFKELVKVLLDWINDVLVEERIIVKQLEEDLYDGQVLQKLLEKLAGCKLNVAEVTQSEIGQKQKLQTVLEAVHDLLRPRGWALRWSVDSIHGKNLVAILHLLVSLAMHFRAPIRLPEHVTVQVVVVRKREGLLHSSHISEELTTTTEMMMGRFERDAFDTLFDHAPDKLSVVKKSLITFVNKHLNKLNLEVTELETQFADGVYLVLLMGLLEDYFVPLHHFYLTPESFDQKVHNVSFAFELMLDGGLKKPKARPEDVVNLDLKSTLRVLYNLFTKYKNVE [PARVB] | 0.0443 | 0.418 | 0.496 |  | 50.4 | -0.137 |
| MSTNGDDHQVKDSLEQLRCHFTWELSIDDDEMPDLENRVLDQIEFLDTKYSVGIHNLLAYVKHLKGQNEEALKSLKEAENLMQEEHDNQANVRSLVTWGNFAWMYYHMGRLAEAQTYLDKVENICKKLSNPFRYRMECPEIDCEEGWALLKCGGKNYERAKACFEKVLEVDPENPESSAGYAISAYRLDGFKLATKNHKPFSLLPLRQAVRLNPDNGYIKVLLALKLQDEGQEAEGEKYIEEALANMSSQTYVFRYAAKFYRRKGSVDKALELLKKALQETPTSVLLHHQIGLCYKAQMIQIKEATKGQPRGQNREKLDKMIRSAIFHFESAVEKKPTFEVAHLDLARMYIEAGNHRKAEENFQKLLCMKPVVEETMQDIHFHYGRFQEFQKKSDVNAIIHYLKAIKIEQASLTRDKSINSLKKLVLRKLRRKALDLESLSLLGFVYKLEGNMNEALEYYERALRLAADFENSVRQGP [IFIT1] | 0.322 | 1.47 | 2.07 | 49.1 | 48.3 | -0.063 |
| MSLICSISNEVPEHPCVSPVSNHVYERRLIEKYIAENGTDPINNQPLSEEQLIDIKVAHPIRPKPPSATSIPAILKALQDEWDAVMLHSFTLRQQLQTTRQELSHALYQHDAACRVIARLTKEVTAAREALATLKPQAGLIVPQAVPSSQPSVVGAGEPMDLGELVGMTPEIIQKLQDKATVLTTERKKRGKTVPEELVKPEELSKYRQVASHVGLHSASIPGILALDLCPSDTNKILTGGADKNVVVFDKSSEQILATLKGHTKKVTSVVFHPSQDLVFSASPDATIRIWSVPNASCVQVVRAHESAVTGLSLHATGDYLLSSSDDQYWAFSDIQTGRVLTKVTDETSGCSLTCAQFHPDGLIFGTGTMDSQIKIWDLKERTNVANFPGHSGPITSIAFSENGYYLATAADDSSVKLWDLRKLKNFKTLQLDNNFEVKSLIFDQSGTYLALGGTDVQIYICKQWTEILHFTEHSGLTTGVAFGHHAKFIASTGMDRSLKFYSL [PRPF19] | -0.473 | -0.506 | -3.39 | 56.5 | 54 | 0.214 |
| MADTTPNGPQGAGAVQFMMTNKLDTAMWLSRLFTVYCSALFVLPLLGLHEAASFYQRALLANALTSALRLHQRLPHFQLSRAFLAQALLEDSCHYLLYSLIFVNSYPVTMSIFPVLLFSLLHAATYTKKVLDARGSNSLPLLRSVLDKLSANQQNILKFIACNEIFLMPATVFMLFSGQGSLLQPFIYYRFLTLRYSSRRNPYCRTLFNELRIVVEHIIMKPACPLFVRRLCLQSIAFISRLAPTVP [TMEM33] | 0.0522 | 2.25 | 2.45 | 55 | 53.5 | -0.177 |
| MTKFGFLRLSYEKQDTLLKLLILSMAAVLSFSTRLFAVLRFESVIHEFDPYFNYRTTRFLAEEGFYKFHNWFDDRAWYPLGRIIGGTIYPGLMITSAAIYHVLHFFHITIDIRNVCVFLAPLFSSFTTIVTYHLTKELKDAGAGLLAAAMIAVVPGYISRSVAGSYDNEGIAIFCMLLTYYMWIKAVKTGSICWAAKCALAYFYMVSSWGGYVFLINLIPLHVLVLMLTGRFSHRIYVAYCTVYCLGTILSMQISFVGFQPVLSSEHMAAFGVFGLCQIHAFVDYLRSKLNPQQFEVLFRSVISLVGFVLLTVGALLMLTGKISPWTGRFYSLLDPSYAKNNIPIIASVSEHQPTTWSSYYFDLQLLVFMFPVGLYYCFSNLSDARIFIIMYGVTSMYFSAVMVRLMLVLAPVMCILSGIGVSQVLSTYMKNLDISRPDKKSKKQQDSTYPIKNEVASGMILVMAFFLITYTFHSTWVTSEAYSSPSIVLSARGGDGSRIIFDDFREAYYWLRHNTPEDAKVMSWWDYGYQITAMANRTILVDNNTWNNTHISRVGQAMASTEEKAYEIMRELDVSYVLVIFGGLTGYSSDDINKFLWMVRIGGSTDTGKHIKENDYYTPTGEFRVDREGSPVLLNCLMYKMCYYRFGQVYTEAKRPPGFDRVRNAEIGNKDFELDVLEEAYTTEHWLVRIYKVKDLDNRGLSRT [STT3A] | -0.102 | 1.3 | 3.3 | 53.7 | 54 | -0.105 |
| MATAEVLNIGKKLYEGKTKEVYELLDSPGKVLLQSKDQITAGNAARKNHLEGKAAISNKITSCIFQLLQEAGIKTAFTRKCGETAFIAPQCEMIPIEWVCRRIATGSFLKRNPGVKEGYKFYPPKVELFFKDDANNDPQWSEEQLIAAKFCFAGLLIGQTEVDIMSHATQAIFEILEKSWLPQNCTLVDMKIEFGVDVTTKEIVLADVIDNDSWRLWPSGDRSQQKDKQSYRDLKEVTPEGLQMVKKNFEWVAERVELLLKSESQCRVVVLMGSTSDLGHCEKIKKACGNFGIPCELRVTSAHKGPDETLRIKAEYEGDGIPTVFVAVAGRSNGLGPVMSGNTAYPVISCPPLTPDWGVQDVWSSLRLPSGLGCSTVLSPEGSAQFAAQIFGLSNHLVWSKLRASILNTWISLKQADKKIRECNL [PAICS] | 0.271 | -0.183 | -0.625 | 63.2 | 66.2 | -0.0303 |
| MWRLPRALCVHAAKTSKLSGPWSRPAAFMSTLLINQPQYAWLKELGLREENEGVYNGSWGGRGEVITTYCPANNEPIARVRQASVADYEETVKKAREAWKIWADIPAPKRGEIVRQIGDALREKIQVLGSLVSLEMGKILVEGVGEVQEYVDICDYAVGLSRMIGGPILPSERSGHALIEQWNPVGLVGIITAFNFPVAVYGWNNAIAMICGNVCLWKGAPTTSLISVAVTKIIAKVLEDNKLPGAICSLTCGGADIGTAMAKDERVNLLSFTGSTQVGKQVGLMVQERFGRSLLELGGNNAIIAFEDADLSLVVPSALFAAVGTAGQRCTTARRLFIHESIHDEVVNRLKKAYAQIRVGNPWDPNVLYGPLHTKQAVSMFLGAVEEAKKEGGTVVYGGKVMDRPGNYVEPTIVTGLGHDASIAHTETFAPILYVFKFKNEEEVFAWNNEVKQGLSSSIFTKDLGRIFRWLGPKGSDCGIVNVNIPTSGAEIGGAFGGEKHTGGGRESGSDAWKQYMRRSTCTINYSKDLPLAQGIKFQ [ALDH7A1] | 0.167 | -0.224 | -1.8 | 54.3 | 54 | -0.107 |
| MSSIGTGYDLSASTFSPDGRVFQVEYAMKAVENSSTAIGIRCKDGVVFGVEKLVLSKLYEEGSNKRLFNVDRHVGMAVAGLLADARSLADIAREEASNFRSNFGYNIPLKHLADRVAMYVHAYTLYSAVRPFGCSFMLGSYSVNDGAQLYMIDPSGVSYGYWGCAIGKARQAAKTEIEKLQMKEMTCRDIVKEVAKIIYIVHDEVKDKAFELELSWVGELTNGRHEIVPKDIREEAEKYAKESLKEEDESDDDNM [PSMA3] | 0.204 | -2.57 | -3.19 | 60.7 | 56.7 | -0.0697 |
| PPP2R5A | 0.0389 | 0.702 | 1.43 | 50.8 | 50.5 | -0.192 |
| MEQVAEGARVTAVPVSAADSTEELAEVEEGVGVVGEDNDAAARGAEAFGDSEEDGEDVFEVEKILDMKTEGGKVLYKVRWKGYTSDDDTWEPEIHLEDCKEVLLEFRKKIAENKAKAVRKDIQRLSLNNDIFEANSDSDQQSETKEDTSPKKKKKKLRQREEKSPDDLKKKKAKAGKLKDKSKPDLESSLESLVFDLRTKKRISEAKEELKESKKPKKDEVKETKELKKVKKGEIRDLKTKTREDPKENRKTKKEKFVESQVESESSVLNDSPFPEDDSEGLHSDSREEKQNTKSARERAGQDMGLEHGFEKPLDSAMSAEEDTDVRGRRKKKTPRKAEDTRENRKLENKNAFLEKKTVPKKQRNQDRSKSAAELEKLMPVSAQTPKGRRLSGEERGLWSTDSAEEDKETKRNESKEKYQKRHDSDKEEKGRKEPKGLKTLKEIRNAFDLFKLTPEEKNDVSENNRKREEIPLDFKTIDDHKTKENKQSLKERRNTRDETDTWAYIAAEGDQEVLDSVCQADENSDGRQQILSLGMDLQLEWMKLEDFQKHLDGKDENFAATDAIPSNVLRDAVKNGDYITVKVALNSNEEYNLDQEDSSGMTLVMLAAAGGQDDLLRLLITKGAKVNGRQKNGTTALIHAAEKNFLTTVAILLEAGAFVNVQQSNGETALMKACKRGNSDIVRLVIECGADCNILSKHQNSALHFAKQSNNVLVYDLLKNHLETLSRVAEETIKDYFEARLALLEPVFPIACHRLCEGPDFSTDFNYKPPQNIPEGSGILLFIFHANFLGKEVIARLCGPCSVQAVVLNDKFQLPVFLDSHFVYSFSPVAGPNKLFIRLTEAPSAKVKLLIGAYRVQLQ [MPHOSPH8] | -1.16 | 0.43 | 1.88 | 49.3 | 50 | 0.82 |
| CC2D1A | 0.298 | 0.931 | 0.615 | 49.7 | 49.6 | -0.0691 |
| MAALAPVGSPASRGPRLAAGLRLLPMLGLLQLLAEPGLGRVHHLALKDDVRHKVHLNTFGFFKDGYMVVNVSSLSLNEPEDKDVTIGFSLDRTKNDGFSSYLDEDVNYCILKKQSVSVTLLILDISRSEVRVKSPPEAGTQLPKIIFSRDEKVLGQSQEPNVNPASAGNQTQKTQDGGKSKRSTVDSKAMGEKSFSVHNNGGAVSFQFFFNISTDDQEGLYSLYFHKCLGKELPSDKFTFSLDIEITEKNPDSYLSAGEIPLPKLYISMAFFFFLSGTIWIHILRKRRNDVFKIHWLMAALPFTKSLSLVFHAIDYHYISSQGFPIEGWAVVYYITHLLKGALLFITIALIGTGWAFIKHILSDKDKKIFMIVIPLQVLANVAYIIIESTEEGTTEYGLWKDSLFLVDLLCCGAILFPVVWSIRHLQEASATDGKGDSMGPLQQRANLRAGSRIESHHFAQADLELLASSCPPASVSQRAGITAAINLAKLKLFRHYYVLIVCYIYFTRIIAFLLKLAVPFQWKWLYQLLDETATLVFFVLTGYKFRPASDNPYLQLSQEEEDLEMESVVTTSGVMESMKKVKKVTNGSVEPQGEWEGAV [GPR107] | -0.0201 | 0.348 | -0.468 |  | 53.4 | -0.385 |
